This is an account of results in publication PMC2139813 (The Journal of Cell Biology, 1997).

The test addresses human placental moesin (human, UniProt P26038 1-577). Description: far-Western, overlay or dot blot.

B1: human moesin N-ERMAD (amino acids 1–296) (domain or fragment, UniProt P26038 1-296, looked up)
chain: MPKTISVRVTTMDAELEFAIQPNTTGKQLFDQVVKTIGLREVWFFGLQYQDTKGFSTWLKLNKKVTAQDVRKESPLLFKFRAKFYPEDVSEELIQDITQRLFFLQVKEGILNDDIYCPPETAVLLASYAVQSKYGDFNKEVHKSGYLAGDKLLPQRVLEQHKLNKDQWEERIQVWHEEHRGMLREDAVLEYLKIAQDLEMYGVNYFSIKNKKGSELWLGVDALGLNIYEQNDRLTPKIGFPWSEIRNISFNDKKFVIKPIDKKAPDFVFYAPRLRINKRILALCMGNHELYMRRRK
modifications: biotin (only where used as probe in blot overlays; site not stated)
Regarding B1, the binding result was “binds”.
